The numbers were not newly measured in patent US5189019A, “Antistasin derived anticoagulant protein” (Merck & Co., Inc., priority 1990, dated 1993), which cites them from elsewhere.

The target in this data set is Factor Xa (Homo sapiens, UniProt P00742). The settings on record: Tuszynski et al. 1987; Nutt et al. 1988.
Chain of Factor Xa (P00742 235-488 limits assumed): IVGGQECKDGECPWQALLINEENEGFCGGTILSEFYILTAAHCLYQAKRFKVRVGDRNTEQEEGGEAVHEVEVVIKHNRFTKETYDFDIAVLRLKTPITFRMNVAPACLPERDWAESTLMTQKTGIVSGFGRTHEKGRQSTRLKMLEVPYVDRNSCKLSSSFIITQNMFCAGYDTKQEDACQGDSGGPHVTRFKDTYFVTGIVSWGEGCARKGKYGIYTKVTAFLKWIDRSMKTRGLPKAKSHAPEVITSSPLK
Chain of Factor Xa (P00742 41-179 partner limits assumed): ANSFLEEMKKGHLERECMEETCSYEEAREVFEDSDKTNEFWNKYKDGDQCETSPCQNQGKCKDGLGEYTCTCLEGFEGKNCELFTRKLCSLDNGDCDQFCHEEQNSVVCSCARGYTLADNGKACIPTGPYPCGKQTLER

B1: Antistasin: 15 kDa cysteine rich protein found in the salivary gland of the Mexican leech, Haementeria officinalis (protein, UniProt P15358 18-136, looked up)
Antistasin: QGPFGPGCEEAGCPEGSACNIITDRCTCSGVRCRMHCPHGFQRSRYGCEFCKCRLEPMKATCDISECPEGMMCSRLTNKCDCKIDINCRKTCPNGLKRDKLGCEYCECRPKRKLIPRLS
Regarding B1, the “inhibition of Factor Xa in the human blood coagulation cascade” value is recorded as “potent inhibitor”.
